Patent US20190211317A1, “PEPTIDES AND NANOPARTICLES FOR INTRACELLULAR DELIVERY OF GENOME-EDITING MOLECULES” (Aadigen, LLC, priority 2016, published 2019)

Molecular target: CY5-CAS9:sgRNA complex (1:1 molar ratio) (S. pyogenes) (UniProt Q99ZW2)
Test: fluorescence titration of 5 nM CY5-CAS9:sgRNA (1:1) with increasing peptide, quadratic fit

With CADY (peptide) the Kd was 21 nM.
